Measurements: the supplement of paper PMC9170038

How the values were obtained:
[1] = test system: MS2 coat protein; assay: apparent KD of MS2 coat protein; designed switch direction (-1 OFF switch, 1 ON switch): -1; higher = weaker reporter binding; conditions: Eterna round: R98
Protocol: (§1)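 RNA-MaP: designed FMN/MS2 RNA switches (84 nt design region) are transcribed on-chip within common flanks and titrated with SNAP-549-labelled MS2 coat protein (about 1-3000 nM) in 100 mM Tris pH 7.5, 80 mM KCl, 4 mM MgCl2, without or with 200 uM FMN. Median apparent KD per design; activation ratio = KD,OFF / KD,ON.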

[2] = test system: MS2 coat protein; assay: apparent KD of MS2 coat protein; higher = weaker reporter binding; conditions: Eterna round: R101
Protocol: as §1

| Sequence | apparent KD of MS2 coat protein ([1]; input ligand: FMN 200 uM) | apparent KD of MS2 coat protein ([1]; input ligand: none) | apparent KD of MS2 coat protein ([2]; input ligand: FMN 200 uM) | apparent KD of MS2 coat protein ([2]; input ligand: none) |
| --- | --- | --- | --- | --- |
| UUCUGUGCCCAAAGUUUAAGCACAUGAGGAUCACCCAUGUGAAAGGAUAUGUGGCAUGUAAUGUUAUAGAAGGUUCACAAUCAA [Esadi] | 23.9 nM | 15.8 nM |  |  |
| UCAUAAUAGAUCCUAUUUAUCUACAUGAGGAUCACCCAUGUGCAGGAUAUGCUAAAAUUAAAAUAGCAGAAGGGCAAUUUCAGC [JR_ExcNG3_Sub013] | 359 nM | 94.3 nM |  |  |
| UGGUAUAAGGGCAUUACACAUGAGGAUCACCCAUGUACGUUAGAGGAUAUGCAUUCCAGUCGAACGUAGAAGGUUAGAGAAGGG [Morebubblesahh#8abcdefghij] | 150 nM | 113 nM |  |  |
| GGUCGACCUCAAGGAUAUGGACUGCUUUGCAGUCCAGAAGGUGAGGAUCACCCACCUACGGUCAGGUUUCUGACCGAUCGACCU [#AddUracilToBrourdLoops 2 - Jieux - Exclusion NG1] (puzzle (switch architecture): Exclusion NG 1) |  |  | 79.2 nM | 14.2 nM |
| AGAGCUGCUCAGAAGGAGGAUCACCCUUUCGAAAGAAAUACGGAGGCUGAAAAGCCUCCGAAAUUCUAGGAUAUGAGCAGCUCA [#SharedSequence - IExNG2: 7] (puzzle (switch architecture): Inverted Exclusion NG 2) |  |  | 133 nM | 167 nM |
| CCAUAAAAGAUCCAAAAUUACAACAUGAGGAUCACCCAUGUGCAGGAUAUCGUGAAAGUAAAAUACGAGAAGGGCAAGAACUGC [salish99_ExNG3_r2_004] | 425 nM | 430 nM |  |  |
